Assay results taken from PMC12607626, “Separation of Pseudomonas aeruginosa type IV pilus-dependent twitching motility and surface-sensing responses” (mBio, 2025).

Biological target: the molecule itself
Assay: crystal structure; X-ray, 4.5 Å; sitting-drop vapour diffusion at 20 °C; 12.5 µM ATP in the final buffer, no nucleotide density; four protomers in the asymmetric unit, two nearly identical C3 hexamers identified from the crystal packing

B1: PilU (Pseudomonas aeruginosa type IVa pilus retraction ATPase paralog of PilT) (enzyme)
chain: MEFEKLLRLMVEKGGSDLFITAGVPPSMKVNGRVMPVTKTPLSPEQTRETVLGVMNEQQRRDFAENHECNFAISARGIGRFRVSAFYQRNLVGMVLRRIETNIPTLEELKLPEILKKLALTKRGLVIFVGATGTGKSTSLAAMIGYRNKNSTGHIISIEDPIEYIHQHQGCIVTQREVGLDTDSFEVALKNTLRQAPDVIMIGEVRSRETMDHAVAFAETGHLCLATLHANNANQALERIIHFFPADRHGQVWMDLSLNLKAIVAQQLVPTPDGKGRRAVIEVLLNTPLAADLIRKGEVHELKPLMKRSTEQGMQTFDQALYQLYTQGEITYEDALAHADSANDLRLMIKLGSESDADHLSSLTQGLSLEITDDDPAGRRFR
notes: PilU, P. aeruginosa; the pilU gene was amplified by PCR and cloned into pET28a; the 30 C-terminal residues were not resolved in the crystal; also called PilU hexamer; source: E. coli BL21 (DE3), pET28a, purified (HiTrap Chelating HP, size-exclusion chromatography)
stoichiometry N: 6
